{"source": "paper PMC5750462", "about": "(Emerging Microbes & Infections, 2017)", "proteins": {"B1": {"name": "recombinant N1-165-domain of wild-type (wt) matrix protein 1 (M1), influenza A virus A/WSN/33 (domain or fragment)", "chain": "MSLLTEVETYVLSIVPSGPLKAEIAQRLEDVFAGKNTDLEVLMEWLKTRPILSPLTKGILGFVFTLTVPSERGLQRRRFVQNALNGNGDPNNMDKAVKLYRKLKREITFHGAKEIALSYSAGALASCMGLIYNRMGAVTTEVAFGLVCATCEQIADSQHRSHRQM"}}, "molecular_target": "the molecule itself", "assay": "BLI; […] (PBS, 0.01% BSA, 0.002% Tween-20); […]"}
{"protein": "B1", "values": [{"measurement": "binding result", "value": "binds"}]}
